Test results reported in the supplement of paper PMC10567573.

B1: TRIM39 (parent)
chain: ERDFPCPVCRKTSRYRSLRPNRQL
B2: FBF1 (parent)
chain: QLQCSPAELQAELLHSQARLAELE

Variants of: B1
Test: protein stability index of a GFP-peptide fusion (GPS, HEK-293T) (PSI 1-6); higher = more stable
Details: c terminus: a fixed tail appended
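Further: lentivirally expressed fusions sorted by FACS into six bins by GFP to DsRed ratio, PSI derived from sequencing read proportions per bin multiplied by bin number.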

Protein stability index of substitutions, site by site:
N21: Q 1.62; Y 2.52; M 2.74; K 2.78; F 2.6; S 1.91; P 2.12; R 2.96; D 2.12; I 1.85; W 2.53; V 1.9; H 1.77; E 1.71
R22: K 2.66; L 1.83; V 1.76; T 2.04; A 3.44; E 2.4; H 1.56; Y 2.23; F 1.79; M 2.86; S 1.5; D 2.37; G 2.17; N 1.6; Q 1.95; I 1.93
Q23: H 3.18; F 1.67; P 1.47; D 2.34; Y 1.66; T 2.9; N 2.77; L 1.87; S 2.17; C 1.8; A 1.33; M 2.27; I 1.68; W 2.26; R 1.71; K 1.92; G 2.46
P20: T 2.13; R 4.09; N 1.77; W 1.84; S 1.76; A 2.22; H 1.87; Q 2.17; D 2.06; I 1.6; K 2.58; L 1.75; V 2.07; F 3.1; E 2.04; Y 1.84; M 3.02; C 2.44
R19: M 1.29; E 1.59; P 1.98; Q 1.91; H 2.08; I 2.1; G 1.89; N 1.78; L 2; S 2.58; V 1.85; W 2.1; T 1.75; D 1.54; K 1.82; A 1.63; Y 2.12
L18: Q 2.39; M 1.82; R 2.87; P 2.89; W 2.26; Y 1.96; I 1.81; S 2.42; V 2.49; N 2.41; T 3.13
L24: F 2.04; D 1.75; C 3.12; R 3.37; P 3.2; G 2.06; T 2.51; H 2.82; W 1.36; I 1.85; N 2.41; S 3.32; A 1.81; V 2.19; Q 3.08

Variants of: B2
Test: as above
Details: c terminus: a fixed tail appended

Protein stability index: each site, then its substitutions
Q1: E 3.2; M 2.64; W 2.8; A 2.89; P 3.91; K 2.69; Y 2.6; G 2.77; D 3.2; I 2.82; H 3.26; T 3.33; S 3.31; L 2.62; C 2.91; V 2.41; R 2.59; N 2.82; F 2.06
L2: E 4.46; R 2.59; I 2.82; P 4.15; W 2.75; H 3.21; Y 3.35; N 3.52; T 2.94; C 2.42; Q 3.85; F 2.83; K 2.89; S 3.96; D 3.65; M 3.61; A 3.02; V 3.68; G 3.38
C4: D 4.22; A 3.99
Q3: N 2.81; F 2.11; C 2.53; T 3.48; Y 2.12; I 2.69; W 2.62; H 2.6; R 3.21; A 3.13; D 3.1; E 3.54; V 3.1; M 2.59; K 2.19; S 3.53; G 3.25; L 3.35; P 3.01
